In publication PMC10445738 one finds response (spectral counts) data, which are given here for 1 substance.

Experiment in all cases: AP-MS
Assay [1] deals with HOIL-1-interacting protein (HOIP), endogenous (UniProt Q96EP0). As to conditions: FLAG-tagged OTULIN bait expressed in HEK293 cells; endogenous prey; parent: est. 27; read off a plot.
The target of a further assay is SNX27, endogenous (UniProt Q96L92). As to conditions: FLAG-tagged OTULIN bait expressed in HEK293 cells; endogenous prey; parent: est. 62; read off a plot.
Assay [2] concerns the target scribble (SCRIB), endogenous (UniProt Q14160). As to conditions: FLAG-tagged OTULIN bait expressed in HEK293 cells; endogenous prey; parent: est. 110; read off a plot.
In a further assay the target is SLC9A3R2, endogenous (UniProt Q15599). As to conditions: FLAG-tagged OTULIN bait expressed in HEK293 cells; endogenous prey; read off a plot.
Chain of UniProt Q15599 (Q15599 whole entry): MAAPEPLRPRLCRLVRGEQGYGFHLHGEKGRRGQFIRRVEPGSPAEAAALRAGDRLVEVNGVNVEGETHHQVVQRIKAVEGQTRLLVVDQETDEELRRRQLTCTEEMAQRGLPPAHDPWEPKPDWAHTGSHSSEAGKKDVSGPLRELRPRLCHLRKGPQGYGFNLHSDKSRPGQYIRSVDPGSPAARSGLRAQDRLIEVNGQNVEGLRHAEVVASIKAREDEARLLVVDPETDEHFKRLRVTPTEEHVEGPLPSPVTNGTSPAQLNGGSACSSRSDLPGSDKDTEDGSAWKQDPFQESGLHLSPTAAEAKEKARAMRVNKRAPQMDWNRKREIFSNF

Chain of UniProt Q96EP0 (Q96EP0 whole entry): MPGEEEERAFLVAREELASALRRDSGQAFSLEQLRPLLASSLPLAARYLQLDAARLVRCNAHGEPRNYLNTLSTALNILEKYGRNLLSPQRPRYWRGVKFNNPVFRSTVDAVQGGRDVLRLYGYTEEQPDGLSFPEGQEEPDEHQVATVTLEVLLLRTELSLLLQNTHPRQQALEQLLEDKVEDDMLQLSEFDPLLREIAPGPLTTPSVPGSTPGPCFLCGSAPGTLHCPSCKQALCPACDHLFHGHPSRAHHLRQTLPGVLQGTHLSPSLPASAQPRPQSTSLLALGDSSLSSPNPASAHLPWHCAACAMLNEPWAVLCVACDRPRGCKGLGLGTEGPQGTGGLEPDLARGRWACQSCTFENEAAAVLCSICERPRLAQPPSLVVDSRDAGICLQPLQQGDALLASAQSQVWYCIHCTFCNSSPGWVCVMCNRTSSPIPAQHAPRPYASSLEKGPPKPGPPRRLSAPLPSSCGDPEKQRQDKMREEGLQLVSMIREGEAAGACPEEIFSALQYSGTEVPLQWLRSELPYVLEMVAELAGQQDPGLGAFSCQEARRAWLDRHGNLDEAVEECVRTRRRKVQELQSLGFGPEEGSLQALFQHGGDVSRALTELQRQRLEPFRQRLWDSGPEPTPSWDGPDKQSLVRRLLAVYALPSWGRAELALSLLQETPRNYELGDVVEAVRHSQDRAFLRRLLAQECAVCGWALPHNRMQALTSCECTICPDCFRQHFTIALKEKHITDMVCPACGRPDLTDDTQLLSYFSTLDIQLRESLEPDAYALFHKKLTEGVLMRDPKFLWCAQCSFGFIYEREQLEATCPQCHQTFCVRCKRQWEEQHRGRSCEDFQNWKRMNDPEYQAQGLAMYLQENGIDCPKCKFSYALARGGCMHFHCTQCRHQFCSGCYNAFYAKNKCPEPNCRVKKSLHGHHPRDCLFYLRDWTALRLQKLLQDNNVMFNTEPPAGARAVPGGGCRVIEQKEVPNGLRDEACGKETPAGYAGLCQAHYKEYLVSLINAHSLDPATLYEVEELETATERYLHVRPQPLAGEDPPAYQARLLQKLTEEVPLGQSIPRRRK
Chain of UniProt Q14160 (Q14160 whole entry): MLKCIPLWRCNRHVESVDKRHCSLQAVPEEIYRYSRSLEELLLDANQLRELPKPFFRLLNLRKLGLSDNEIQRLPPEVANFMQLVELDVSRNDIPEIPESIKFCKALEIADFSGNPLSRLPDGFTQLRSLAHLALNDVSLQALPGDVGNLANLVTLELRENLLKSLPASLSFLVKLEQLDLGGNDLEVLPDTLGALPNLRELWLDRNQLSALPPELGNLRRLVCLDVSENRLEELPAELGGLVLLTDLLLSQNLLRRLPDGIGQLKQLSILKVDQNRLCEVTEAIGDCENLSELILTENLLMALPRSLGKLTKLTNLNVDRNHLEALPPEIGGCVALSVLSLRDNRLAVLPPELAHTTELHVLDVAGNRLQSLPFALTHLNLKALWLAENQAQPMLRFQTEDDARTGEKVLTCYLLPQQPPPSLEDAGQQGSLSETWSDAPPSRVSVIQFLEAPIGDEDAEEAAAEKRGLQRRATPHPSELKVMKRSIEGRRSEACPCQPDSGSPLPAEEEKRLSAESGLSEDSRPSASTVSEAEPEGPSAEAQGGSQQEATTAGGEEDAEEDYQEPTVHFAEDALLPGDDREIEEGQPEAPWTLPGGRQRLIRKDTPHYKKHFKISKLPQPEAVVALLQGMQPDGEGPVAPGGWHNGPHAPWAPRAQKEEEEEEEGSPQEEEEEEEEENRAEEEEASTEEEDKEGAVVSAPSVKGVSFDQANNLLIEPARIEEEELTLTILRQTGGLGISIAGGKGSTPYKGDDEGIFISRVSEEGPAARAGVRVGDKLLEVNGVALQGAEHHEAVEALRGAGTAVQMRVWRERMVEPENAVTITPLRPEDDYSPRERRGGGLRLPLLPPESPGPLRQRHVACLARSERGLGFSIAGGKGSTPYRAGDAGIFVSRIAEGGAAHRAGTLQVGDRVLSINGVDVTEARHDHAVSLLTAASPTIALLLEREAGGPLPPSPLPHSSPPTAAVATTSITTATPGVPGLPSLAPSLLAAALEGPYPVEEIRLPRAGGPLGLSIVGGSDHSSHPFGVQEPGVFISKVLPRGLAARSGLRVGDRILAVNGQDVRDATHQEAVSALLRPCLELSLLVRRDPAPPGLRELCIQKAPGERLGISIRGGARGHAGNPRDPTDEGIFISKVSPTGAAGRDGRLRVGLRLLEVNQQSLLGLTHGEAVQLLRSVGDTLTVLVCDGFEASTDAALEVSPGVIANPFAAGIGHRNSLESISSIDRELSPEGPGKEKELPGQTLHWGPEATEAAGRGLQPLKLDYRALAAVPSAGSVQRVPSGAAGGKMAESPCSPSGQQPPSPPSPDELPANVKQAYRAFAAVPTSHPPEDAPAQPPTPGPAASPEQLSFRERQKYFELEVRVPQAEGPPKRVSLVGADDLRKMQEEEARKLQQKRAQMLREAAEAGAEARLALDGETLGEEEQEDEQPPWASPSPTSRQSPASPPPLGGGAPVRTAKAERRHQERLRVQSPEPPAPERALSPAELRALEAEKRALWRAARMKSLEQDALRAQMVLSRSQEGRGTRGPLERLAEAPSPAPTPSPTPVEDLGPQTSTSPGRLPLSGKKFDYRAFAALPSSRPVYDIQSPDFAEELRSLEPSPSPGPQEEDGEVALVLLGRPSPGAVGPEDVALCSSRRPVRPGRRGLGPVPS

Consider “FLAG-tagged full-length OTULIN (WT) (from UniProt Q96BN8) ΔPBM: C-terminal ETSL to AAAA”, for which the response (spectral counts) in assay [1] turned out to be 23; with SNX27, endogenous, 0; in assay [2], 0; in the assay with SLC9A3R2, endogenous it was 0.
